The target of assay [1] is T1, human OX40 on cells (CHO-hOX40, 293HEK-hOX40, Jurkat-hOX40, activated primary CD4+ T cells) (human, UniProt P43489 29-277).
T1 sequence (looked up): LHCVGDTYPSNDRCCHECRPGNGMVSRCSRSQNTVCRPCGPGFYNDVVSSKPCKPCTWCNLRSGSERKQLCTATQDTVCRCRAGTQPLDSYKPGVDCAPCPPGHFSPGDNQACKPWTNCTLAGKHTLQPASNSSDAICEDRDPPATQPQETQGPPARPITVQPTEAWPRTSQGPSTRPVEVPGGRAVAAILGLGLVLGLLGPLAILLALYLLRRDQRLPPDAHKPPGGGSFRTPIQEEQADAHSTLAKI
Description: cell-based or functional assay.

Assay [2] deals with T1, human OX40 on cells (CHO-hOX40, …). Description: flow cytometry, CHO-hOX40, 50 nM. In general terms: A flow cytometer gives signals particle by particle.
Assay [3] has the same target. In words: flow cytometry, CHO-hOX40, 25 nM.
For assay [4] the target is unchanged. In words: flow cytometry, CHO-hOX40, 50 nM. The source holds these as a separate data set.
The target is the same in assay [5]. Description: flow cytometry, CHO-hOX40, 100 nM.
Assay [6] has the same target. Description: flow cytometry, CHO-hOX40, 200 nM.
Assay [7] has the same target. Description: flow cytometry, CHO-hOX40, 100 nM. This is another data set of the same source.
For assay [8] the target is unchanged. Description: flow cytometry, CHO-hOX40, 12.5 nM.
The target is the same in assay [9]. Description: flow cytometry, CHO-hOX40, 6.25 nM.
Assay [10] has the same target. Description: flow cytometry, CHO-hOX40, 12.5 nM. The source holds these as a separate data set.
Assay [11] has the same target. In words: flow cytometry, CHO-hOX40, 6.25 nM. This is another data set of the same source.
Assay [12] has the same target. In words: flow cytometry, CHO-hOX40, 1.5625 nM.
The target is the same in assay [13]. In words: flow cytometry, CHO-hOX40, 0.78125 nM.
The target is the same in assay [14]. In words: flow cytometry, CHO-hOX40, 0.390625 nM.
The target is the same in assay [15]. In words: flow cytometry, CHO-hOX40, 0.390625 nM. The source holds these as a separate data set.
Assay [16] has the same target. In words: flow cytometry, CHO-hOX40, 0.1953125 nM.
Assay [17] has the same target. In words: flow cytometry, CHO-hOX40, 0.1953125 nM. This is another data set of the same source.
Assay [18] has the same target. Description: flow cytometry, CHO-hOX40, 0.09765625 nM.
Assay [19] has the same target. In words: flow cytometry, CHO-hOX40, 0.048828125 nM.
For assay [20] the target is unchanged. Description: flow cytometry, CHO-hOX40, 0.048828125 nM. The source holds these as a separate data set.

B1: OX40L (control reagent; recombinant OX40L, Acro Biosystems) (ligand, UniProt P23510 51-183, looked up)
chain: QVSHRYPRIQSIKVQFTEYKKEKGFILTSQKEDEIMKVQNNSVIINCDGFYLISLKGYFSQEVNISLHYQKDEEPLFQLKKVRSVNSLMVASLTYKDKVYLNVTTDNTSLDDFHVNGGELILIHQNPGEFCVL
notes: may be the same reagent as OX40L-hFc
As to B1, the “NFkB-Luc fold change in Jurkat stimulated by PHA+ anti-CD28” value in assay [1] amounted to 4.82 fold over IgG4 control. Further, the “NFkB-Luc fold change in Jurkat stimulated by anti-CD3+ anti-CD28” value in assay [1] amounted to 4.05 fold over IgG4 control. Further, the MFI in assay [2] worked out at 2.72e+06 MFI; in assay [3], 1.84e+06 MFI; in [4], 1.08e+06 MFI; in [5], 2.57e+06 MFI; in assay [6], 2.68e+06 MFI; in assay [7] it was 2.51e+06 MFI. Moreover, the MFI stood at 1.99e+06 MFI in [8]; 1.48e+06 MFI in [9]; 1.11e+06 MFI in assay [10]; 600000 MFI in assay [11]; 172000 MFI in [12]; 86000 MFI in assay [13]. The MFI stood at 119000 MFI in assay [14]; 49700 MFI in [15]; 83200 MFI in assay [16]; 24800 MFI in assay [17]; 35200 MFI in assay [18]; 34000 MFI in assay [19]. The molecule also came in with an MFI in [20] of 8350 MFI.

For the origin of these results see patent US20200140562A1 (Innovent, published 2020).
